Where no end group is shown, it is not given here.
Target: T1, GLP-1 receptor (rat, UniProt P32301)
T1 chain: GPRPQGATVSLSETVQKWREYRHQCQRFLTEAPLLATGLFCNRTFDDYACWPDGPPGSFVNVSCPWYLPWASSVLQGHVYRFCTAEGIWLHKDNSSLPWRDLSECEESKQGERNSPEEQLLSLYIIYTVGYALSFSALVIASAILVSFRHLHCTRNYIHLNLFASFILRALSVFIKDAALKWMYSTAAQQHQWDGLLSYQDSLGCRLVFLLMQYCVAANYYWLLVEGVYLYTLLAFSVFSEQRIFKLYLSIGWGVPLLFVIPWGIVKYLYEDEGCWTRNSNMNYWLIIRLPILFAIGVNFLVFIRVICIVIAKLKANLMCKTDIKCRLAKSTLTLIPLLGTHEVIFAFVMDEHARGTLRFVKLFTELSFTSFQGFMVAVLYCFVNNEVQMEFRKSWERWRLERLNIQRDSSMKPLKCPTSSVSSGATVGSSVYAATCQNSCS
Assay: competition
Conditions: not given
HSQGTFTSDYARYLDARRAREFIKWLVRGRC(PEG 43 kD) [G4185] showed an IC50 of 0.248 µM.
For HSQGTFTSDYARYLDARRAREFIKWLVRGRC(PEG 22 kD) [G2185], the IC50 was 0.0561 µM.

Target: T2, Glucagon receptor (rat, UniProt P30082)
T2 chain: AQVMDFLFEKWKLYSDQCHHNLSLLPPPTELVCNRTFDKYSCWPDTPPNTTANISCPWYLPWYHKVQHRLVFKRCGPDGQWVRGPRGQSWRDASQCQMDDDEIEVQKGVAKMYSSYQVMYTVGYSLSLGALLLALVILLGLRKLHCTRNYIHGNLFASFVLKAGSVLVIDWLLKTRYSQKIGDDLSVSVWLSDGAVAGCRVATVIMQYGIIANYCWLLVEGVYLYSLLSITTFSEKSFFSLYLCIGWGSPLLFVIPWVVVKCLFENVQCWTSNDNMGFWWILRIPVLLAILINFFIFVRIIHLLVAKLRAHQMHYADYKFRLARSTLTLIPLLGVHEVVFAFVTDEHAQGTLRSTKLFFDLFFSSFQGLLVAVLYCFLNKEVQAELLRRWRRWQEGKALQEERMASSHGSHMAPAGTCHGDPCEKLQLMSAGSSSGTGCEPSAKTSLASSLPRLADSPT
Assay: competition
Conditions: not given
HSQGTFTSDYARYLDARRAREFIKWLVRGRC(PEG 43 kD) [G4185] showed an IC50 of 0.547 µM.
HSQGTFTSDYARYLDARRAREFIKWLVRGRC(PEG 22 kD) [G2185] was tested, and the IC50 was 0.347 µM.
Binder HSQGTFTSDYAKYLDARRAKEFIAWLVKGRC(PEG 22 kD) [G277] has an IC50 of 0.0655 µM.

Target: T3, GLP-1 receptor (rat), P32301
T3 chain: T1 chain
Assay: competition
Conditions: modification not given
For HSQGTFTSDYARYLDARRAKEFIAWLVKGR [G55], the IC50 was 0.0098 µM.
For HSQGTFTSDYAKYLDARRAKEFIAWLVKGR [G87], the IC50 was 0.0986 µM.
For HSQGTFTSDYSKYLDSRRAQDFVQWLVKGR [G1], the IC50 was 0.006 µM.
With HSQGTFTSDYARYLDARRAREFIKWLVRGRGK [G182] the IC50 was 0.0126 µM.
With HSQGTFTSDYARYLDARRAREFIAWLVRGRGK [G85] the IC50 was 0.0015 µM.
With HSQGTFTSDYSKYLEGQAAKEFIAWLVKGR [G5] the IC50 was 0.0005 µM.
HSQGTFTSDYARYLDAKKAKEFIAWLVKGRG [G59] gave an IC50 of 0.0021 µM.
In the case of HSQGTFTSDYARYLDAAKAKEFIAWLVKGRG [G61], the IC50 is reported as 0.0106 µM.
In the case of HSQGTFTSDYAAYLDARRAKEFIAWLVKGR [G56], the IC50 is reported as 0.0066 µM.
Binder HSQGTFTSDYARYLDARRAREFIKWLVRGRG [G90] has an IC50 of 0.0254 µM.
HSQGTFTSDYARYLDARRAREFIKWLVRGRG [G83] gave an IC50 of 0.0032 µM.
For HSQGTFTSDYARYLDARRAREFIKWLVRGRC [G185], the IC50 was 0.0045 µM.
Binder HSQGTFTSDYARYLDARRAKEFIKWLVRGRG [G183] has an IC50 of 0.159 µM.
HSQGTFTSDYAKYLDAARAKEFIAWLVKGR [G57] gave an IC50 of 0.0147 µM.
HSQGTFTSDYAKYLDARRACEFIAWLVKGRG [G71] showed an IC50 of 0.0058 µM.
HSQGTFTSDYAKYLDAAKAKEFIAWLVKGRG [G60] gave an IC50 of 0.0138 µM.
Binder HSQGTFTSDYAKYLDAKKAKEFIAWLVKGRG [G58] has an IC50 of 0.0069 µM.
HSQGTFTSDYAKYLDARRAKEFIAWLVKGRG [G51] gave an IC50 of 0.0082 µM.
HSQGTFTSDYARYLDARRAREFIAWLVKGRG [G84] gave an IC50 of 0.0014 µM.
Work on HSQGTFTSDYARYLDARRAKEFIAWLVRGRG [G82] yielded an IC50 of 0.0081 µM.
Binder HSQGTFTSDYAKYLDARRAKEFIAWLVKCRG [G75] has an IC50 of 0.0077 µM.
HSQGTFTSDYAKYLDARRAKEFIAWLVCGRG [G74] was tested, and the IC50 was 0.0044 µM.
In the case of HSQGTFTSDYAKYLDARRAKEFIAWLVKGCG [G76], the IC50 is reported as 0.0102 µM.
With HSQGTFTSDYAKYLDARRAKEFIAWLVKGRC [G77] the IC50 was 0.0089 µM.
Work on HSQGTFTSDYAKYLDARRAKEFIAWLVKGRK [G88] yielded an IC50 of 0.109 µM.
Work on HSQGTFTSDYAKYLDARRAKEFIAWLVKGR [G27] yielded an IC50 of 0.0022 µM.

Target: T4, Glucagon receptor (rat), P30082
T4 chain: T2 chain
Assay: competition
Conditions: modification not given
HSQGTFTSDYARYLDARRAKEFIAWLVKGR [G55] was tested, and the IC50 was 0.139 µM.
HSQGTFTSDYAKYLDARRAKEFIAWLVKGR [G87] showed an IC50 of 0.62 µM.
For HSQGTFTSDYSKYLDSRRAQDFVQWLVKGR [G1], the IC50 was 0.0066 µM.
HSQGTFTSDYARYLDARRAREFIKWLVRGRGK [G182] gave an IC50 of 0.22 µM.
Binder HSQGTFTSDYARYLDARRAREFIAWLVRGRGK [G85] has an IC50 of 0.0161 µM.
In the case of HSQGTFTSDYSKYLEGQAAKEFIAWLVKGR [G5], the IC50 is reported as 0.243 µM.
Binder HSQGTFTSDYARYLDAKKAKEFIAWLVKGRG [G59] has an IC50 of 0.0975 µM.
HSQGTFTSDYARYLDAAKAKEFIAWLVKGRG [G61] gave an IC50 of 0.232 µM.
Binder HSQGTFTSDYAAYLDARRAKEFIAWLVKGR [G56] has an IC50 of 0.125 µM.
Binder HSQGTFTSDYARYLDARRAREFIKWLVRGRG [G90] has an IC50 of 0.726 µM.
With HSQGTFTSDYARYLDARRAREFIKWLVRGRG [G83] the IC50 was 0.0286 µM.
HSQGTFTSDYARYLDARRAREFIKWLVRGRC [G185] gave an IC50 of 0.048 µM.
In the case of HSQGTFTSDYARYLDARRAKEFIKWLVRGRG [G183], the IC50 is reported as 0.663 µM.
With HSQGTFTSDYAKYLDAARAKEFIAWLVKGR [G57] the IC50 was 0.177 µM.
In the case of HSQGTFTSDYAKYLDARRACEFIAWLVKGRG [G71], the IC50 is reported as 0.0256 µM.
HSQGTFTSDYAKYLDAAKAKEFIAWLVKGRG [G60] was tested, and the IC50 was 0.682 µM.
In the case of HSQGTFTSDYAKYLDAKKAKEFIAWLVKGRG [G58], the IC50 is reported as 0.164 µM.
Work on HSQGTFTSDYAKYLDARRAKEFIAWLVKGRG [G51] yielded an IC50 of 0.154 µM.
For HSQGTFTSDYARYLDARRAREFIAWLVKGRG [G84], the IC50 was 0.0117 µM.
Work on HSQGTFTSDYARYLDARRAKEFIAWLVRGRG [G82] yielded an IC50 of 0.0336 µM.
Work on HSQGTFTSDYAKYLDARRAKEFIAWLVKCRG [G75] yielded an IC50 of 0.054 µM.
Binder HSQGTFTSDYAKYLDARRAKEFIAWLVCGRG [G74] has an IC50 of 0.0217 µM.
HSQGTFTSDYAKYLDARRAKEFIAWLVKGCG [G76] gave an IC50 of 0.0591 µM.
HSQGTFTSDYAKYLDARRAKEFIAWLVKGRC [G77] was tested, and the IC50 was 0.0611 µM.
With HSQGTFTSDYAKYLDARRAKEFIAWLVKGRK [G88] the IC50 was 0.35 µM.
For HSQGTFTSDYAKYLDARRAKEFIAWLVKGR [G27], the IC50 was 0.0693 µM.
